Reference: the supplement of paper PMC9942255

Test system: Bacillus subtilis DB104 (SP-AmyQ fusion secretion)
Test: AmyQ secretion efficiency, weighted average sort bin (1 = best secretion, 10 = worst) (bin number (weighted average, 1-10)); higher = lower secretion efficiency
Method in brief: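 The secretion score was taken as the read-frequency-weighted mean bin number, normalised to beads per bin, with low-abundance sequences excluded. Bins came from large-particle flow cytometry sorting of occupied alginate beads (~65 nL, about 0.3 cells each, with fluorescein-starch) into 10 equally populated groups by green/red fluorescence ratio after about 13 h at room temperature and nile red staining. The cells were a B. subtilis DB104 library with mature AmyQ fused to designed signal peptides, integrated at amyE, and each bin's amplicons were Illumina-sequenced.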

Sequence	AmyQ secretion efficiency
MKLSVKIAGVLTVAAAAMRKKMYATAKGN	7.43
MKLSVKIAGVLTVAAAAMRKRKKRATAKGN	7.22
MKLSVKIAGVLTVAAAAMSTAKMYATAKGN	7.14
MKLSVKIAGVLTVAAAAMTAGMYATAKGN	5.78
MKLSVKIAGVLTVAAAAMTAKMYATAADD	6.81
MKLSVKIAGVLTVAAAAMTAKMYATAAGD	6.46
MKLSVKIAGVLTVAAAAMTAKMYATAAGN	6.91
MKLSVKIAGVLTVAAAAMTAKMYATAEEE	6.08
MKLSVKIAGVLTVAAAAMTAKMYATAKKK	5.42
MKLSVKIAGVLTVAAAAMTAKMYATDKGN	5.75
MKLSVKIAGVLTVAAAAMTAKMYATEKGN	4.74
MKLSVKIAGVLTVAAAAMTAKMYATFTGTFAATAKGN	7.49
MKLSVKIAGVLTVAAAAMTAKMYATGKGN	6.84
MKLSVKIAGVLTVAAAAMTAKMYATHKGN	6.71
MKLSVKIAGVLTVAAAAMTAKMYATIKGN	6.84
MKLSVKIAGVLTVAAAAMTAKMYATKKGN	8.52
MKLSVKIAGVLTVAAAAMTAKMYATLKGN	7.31
MKLSVKIAGVLTVAAAAMTAKMYATMKGN	6.84
MKLSVKIAGVLTVAAAAMTAKMYATNKGN	6.32
MKLSVKIAGVLTVAAAAMTAKMYATPKGN	5.67
MKLSVKIAGVLTVAAAAMTAKMYATQKGN	7.51

Sequence	AmyQ secretion efficiency
MKLSVKIAGVLTVAAAAMTAKMYATRKGN	7.91
MKLSVKIAGVLTVAAAAMTAKMYATSKGN	6.78
MKLSVKIAGVLTVAAAAMTAKMYATTKGN	5.53
MKLSVKIAGVLTVAAAAMTAKMYATVKGN	6.87
MKLSVKIAGVLTVAAAAMTAKMYATWKGN	7.14
MKLSVKIAGVLTVAAAAMTAKMYATYKGN	7.14
MKLSVKIAGVLTVAAAAMTAKMYCTAKGN	7.19
MKLSVKIAGVLTVAAAAMTAKMYDTAKGN	4.44
MKLSVKIAGVLTVAAAAMTAKMYFFPAATAKGN	6.16
MKLSVKIAGVLTVAAAAMTAKMYFTAKGN	7.66
MKLSVKIAGVLTVAAAAMTAKMYGTAKGN	5.59
MKLSVKIAGVLTVAAAAMTAKMYHTAKGN	6.87
MKLSVKIAGVLTVAAAAMTAKMYKTAKGN	7.2
MKLSVKIAGVLTVAAAAMTAKMYLTAKGN	7.31
MKLSVKIAGVLTVAAAAMTAKMYMTAKGN	6.8
MKLSVKIAGVLTVAAAAMTAKMYNTAKGN	6.07
MKLSVKIAGVLTVAAAAMTAKMYPTAKGN	5.7
MKLSVKIAGVLTVAAAAMTAKMYQTAKGN	7.71
MKLSVKIAGVLTVAAAAMTAKMYRTAKGN	7.39
MKLSVKIAGVLTVAAAAMTAKMYSTAKGN	6.41
MKLSVKIAGVLTVAAAAMTAKMYTTAKGN	7.65

Sequence	AmyQ secretion efficiency
MKLSVKIAGVLTVAAAAMTAKMYVTAKGN	8.14
MKLSVKIAGVLTVAAAAMTAKMYWTAKGN	7.62
MKLSVKIAGVLTVAAAAMTAKMYYTAKGN	6.5
MKLSVKIAGVLTVAAAAMVAFTIAFFFTAKMYATAKGN	2.45
MKLSVKIAGVLTVAAAAMVAIMGATAKGN	8.27
MKLSVKIAGVLTVAATAKMYATAKGN	7.17
MKLSVKIALVLIVAAAAMTAKMYATAKGN	3.77
MKLSVKIKKKRRKAAAAMTAKMYATAKGN	7.56
MKLSVKIRKVLTVAAAAMTAKMYATAKGN	6.94
MKLSVKIRRRKTVAAAAMTAKMYATAKGN	7.97
MKLSVKRGTTLTVAAAAMTAKMYATAKGN	7.06
MKLSVKTRQKTTVAAAAMTAKMYATAKGN	7.48
MKLWMRKTLRRKKRKVTFGLVSPPAALMADKP	7.28
MKLWMRKTLRRLFTIVTFGLVSPPAALMADKP	7.18
MKLWMRKTLVVLFLIVFFFLGTVSPPAALMADKP	3.95
MKLWMRKTLVVLFTIVTFGLKKRPAALMADKP	6.91
MKLWMRKTLVVLFTIVTFGLVIATFTTVAVSPPAALMADKP	4.44
MKLWMRKTLVVLFTIVTFGLVSPPAAEMADKP	2.41
MKLWMRKTLVVLFTIVTFGLVSPPAAFMADKP	2.2
MKLWMRKTLVVLFTIVTFGLVSPPAAGMADKP	3.4
MKLWMRKTLVVLFTIVTFGLVSPPAAHMADKP	2.08
